Experimental data from patent US20210205211A1, “PERCUTANEOUS ABSORPTION PREPARATION” (KYUSHU UNIVERSITY, NATIONAL UNIVERSITY CORPORATION, priority 2018, published 2021).
Residues, ends and D or L forms follow the SMILES beside them.

Assays:
[1] = In vitro skin permeability test of OVA S/O-S formulations with various base oils (Example 8); type: in vitro ADME, Yucatan micropig; details: for Average skin permeation amount: Yucatan micropig, pig, 24 h
[2] = In vitro skin permeability test of OVA versus concentration of permeation enhancing substance (Example 3); details: S/O-S formulation 1 mg/mL OVA in IPM; enhancer solutions of 2, 10, 50 or 100 mg/mL mixed 1:1; 24 hours
[3] = In vitro skin permeability test of hydrophilic polymers in S/O-S formulation containing MGOL-70 (Example 6); details: for Skin permeation amount of S/O-S preparation: 1 mg/mL hydrophilic polymer S/O-S formulation in IPM containing 25 mg/mL MGOL-70; for Skin permeation amount of S/O-S preparation / Skin permeation amount of PBS solution: YMP skin, 24 hours, 32° C.; for Enhancement effect: S/O-S preparation versus PBS solution; for Skin permeation amount of PBS solution: hydrophilic polymer in PBS solution
[4] = In vitro skin permeability test of OVA with glyceryl monooleate/glyceryl monolinoleate (Example 11); type: in vitro ADME; details: OVA S/O-S in IPM; HR-1 mouse skin, 4 hours
Method: Glyceryl monooleate and glyceryl monolinoleate were dissolved in IPM with the composition shown in the following Table 7 to prepare Formulation 2.
Formulation 1 and Formulation 2 were mixed with a volume ratio of 1:1, and used in the following skin permeability test.
After 4 hours, the receiver phase was recovered, and the amount of the FITC-OVA permeated through the skin was quantified by using a plate reader.

[5] = In vitro skin permeability test of CMAP peptide S/O-S formulations with various oily bases (Example 1); type: in vitro ADME, Yucatan micropig
[6] = Measurement of zeta potential by electrophoretic light scattering; type: physicochemical; details: 1 mg in 1 mL PBS solution, 25° C., Zetasizer Nano ZS
Method: In each 1 mL of a PBS solution was dissolved 1 mg of a part (7 kinds) of the various kinds of hydrophilic polymers shown in the above-mentioned Table 1, and a zeta potential was measured by an electrophoretic light scattering method at 25° C. using Zetasizer Nano ZS (Malvern Panalytical Ltd.).

[7] = no method given; cited from earlier work

Row | Molecule | Skin permeation amount of S/O-S preparation [3] [μg/cm^2] | Enhancement effect [3] [fold] | Skin permeation amount of PBS solution [3] [μg/cm^2] | ζ potential [6] [mV] | pI [7] | also measured
1 | CCCCCCCCCCCCCC(=O)OC(C)C [Isopropyl myristate, isopropyl myristate] | – | – | – | – | – | skin permeation effect of OVA by oily base [1]: high skin permeation effect; Average skin permeation amount [1]: 44.3 μg/cm^2
2 | CCCCCCCC/C=C\CCCCCCCC(=O)OCC(O)CO (stereo not drawn) [MGOL-70, glyceryl monooleate] | – | – | – | – | – | tendency of the enhancing substance on percutaneous permeation of OVA [2]: tend to enhance it
3 | CC(C)C[C@H](NC(=O)[C@H](CCC(=O)O)NC(=O)[C@H](CCC(=O)O)NC(=O)[C@@H](NC(=O)[C@H](Cc1ccc(O)cc1)NC(=O)[C@@H](NC(=O)[C@H](CCCNC(=N)N)NC(=O)[C@H](CC(C)C)NC(=O)[C@@H]1CCCN1C(=O)[C@H](C)NC(=O)[C@H](CO)NC(=O)[C@H](CCC(N)=O)NC(=O)[C@H](C)NC(=O)[C@H](CC(=O)O)NC(=O)[C@H](CC(C)C)NC(=O)[C@@H](N)CC(C)C)C(C)C)C(C)C)C(=O)N[C@@H](CCCCN)C(=O)N1CCC[C@H]1C(=O)O [Peptide (CMAP, from Beta-lactoglobulin)] (H-LLDAQSAPLRVYVEELKP-OH; N-terminus and C-terminus assumed) | 11.1 | 15 | 1.30 | – | – | –
4 | CC(C)CCCC(C)CCCC(C)CCCCC(C)CCCC(C)CCCC(C)C (stereo not drawn) [Squalane, squalane] | – | – | – | – | – | skin permeation effect of OVA by oily base [1]: high skin permeation effect; Average skin permeation amount [1]: 40.8 μg/cm^2
5 | CCCCC/C=C\C/C=C\CCCCCCCC(=O)OCC(O)CO (stereo not drawn) [glyceryl monolinoleate] | – | – | – | – | – | skin permeation amount of the drug with increase in the addition ratio [4]: the skin permeation amount of the drug was increased
6 | CCCCCCCC/C=C\CCCCCCCC(=O)O [oleic acid] | – | – | – | – | – | enhancing effect of percutaneous permeation (amount of skin permeation of the CMAP peptide) [5]: high enhancing effect of percutaneous permeation
7 | Bovin serum albumin: Bovine serum albumin, 66.5 kDa, FITC-label | 32.1 | 8.9 | 3.6 | −16.7 | 4.7 | –
8 | Cholera toxin subunit B | 39.4 | 4.0 | 9.8 | −3.29 | 6.6 | –
9 | Green fluorescent protein | 35.0 | 8.4 | 4.2 | −9.52 | 6.1 | state of the protein permeated into the skin ([3]; quantified by own fluorescence (GFP) or peroxidase activity (HRP) in skin extract): could be permeated into the skin without being denatured
10 | Lysozyme: Lysozyme, 14.3 kDa, FITC-label | 6.0 | 1.5 | 4.0 | 8.84 | 11 | –
11 | Ovalubumin: Ovalbumin (OVA), 45 kDa, labeled with FITC; model hydrophilic drug (protein, UniProt P01012 2-386, looked up, FITC, Ovalbumin (OVA), 45 kDa, labeled with FITC; model hydrophilic drug) Ovalbumin: GSIGAASMEFCFDVFKELKVHHANENIFYCPIAIMSALAMVYLGAKDSTRTQINKVVRFDKLPGFGDSIEAQCGTSVNVHSSLRDILNQITKPNDVYSFSLASRLYAEERYPILPEYLQCVKELYRGGLEPINFQTAADQARELINSWVESQTNGIIRNVLQPSSVDSQTAMVLVNAIVFKGLWEKAFKDEDTQAMPFRVTEQESKPVQMMYQIGLFRVASMASEKMKILELPFASGTMSMLVLLPDEVSGLEQLESIINFEKLTEWTSSNVMEERKIKVYLPRMKMEEKYNLTSVLMAMGITDVFSSSANLSGISSAESLKISQAVHAAHAEINEAGREVVGSAEAGVDAASVSEEFRADHPFLFCIKHIATNAVLFFGRCVSP | 12.5 | 30 | 0.41 | −12.80 | 4.9 | –
